In paper PMC11215833:

Molecular target: PybHLH3: Nluc (pear 'Red Zaosu' (P. pyrifolia × P. communis))

dual-luciferase assay, LUC/REN ratio of the PyUFGT promoter activated by PyMYB10 with PybHLH3; ratio of PyMYB107:PyMYB10 from 0:1 (0.48) to 1:1 (0.26) (LUC/REN ratio): 0.26
Substance: PyMYB107 (co-expressed as competitor) (natural protein)
